The target of assay [1] is T1, human TREM2 expressed on cells (human, UniProt Q9NZC2 19-230).
T1 construct: BW5147.G.1.4 cells stably expressing human TREM2 together with Dap12, or endogenous TREM2 of primary human myeloid cells; also called huT2 BW; hTREM2 expressing cell line
T1 sequence: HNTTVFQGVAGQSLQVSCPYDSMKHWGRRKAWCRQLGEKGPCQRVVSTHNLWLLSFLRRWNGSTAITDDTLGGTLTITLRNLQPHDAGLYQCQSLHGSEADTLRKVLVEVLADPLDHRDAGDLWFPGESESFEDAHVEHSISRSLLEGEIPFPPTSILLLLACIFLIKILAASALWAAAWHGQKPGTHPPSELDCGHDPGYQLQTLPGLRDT
The experiment in a line: FACS, hTREM2 BW cells. A general note: Flow cytometry measures light scatter and fluorescence of single cells or particles in a stream.

The target in assay [2] is T2, human TREM2/DAP12 fusion protein (human, UniProt O43914 41-113, limits assumed). In words: cell-based or functional assay.
Assay [3] concerns the target T1, human TREM2 expressed on cells. In words: cell-based or functional assay.
For the next assay, the target named is T3, mouse TREM2 (mouse, UniProt Q99NH8 19-227).
T3 construct: Endogenous TREM2 of wild-type mice (peritoneal macrophages); also called murine TREM2
T3 sequence: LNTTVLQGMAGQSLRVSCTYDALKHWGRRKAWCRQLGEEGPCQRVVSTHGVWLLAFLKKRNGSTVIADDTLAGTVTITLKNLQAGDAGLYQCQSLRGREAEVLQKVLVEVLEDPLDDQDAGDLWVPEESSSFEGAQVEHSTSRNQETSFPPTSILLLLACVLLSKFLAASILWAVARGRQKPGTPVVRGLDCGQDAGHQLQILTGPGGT
The experiment in a line: no effect on Dap12 phosphorylation in WT mice.

In assay [4] the target is T2, human TREM2/DAP12 fusion protein. In words: cell-based or functional assay. The source holds these as a separate data set.

Procedure for mouse TREM2: 8 week old C579116 (WT) Bac-TG-hTREM2 mice were injected i.p. with 3 ml of 3% thioglycollate. […] Immunoblots were probed with antibodies directed against human TREM2 (R&D #AF1828).
To test if AL2p variant antibodies induce TREM2 signal activation in vivo, WT or human TREM2 expressing Bac-Tg mice were treated with thioglycollate to recruit macrophages to the peritoneum. After three days, mice were injected with anti-TREM2 or control huIgG1 antibodies and subsequently, peritoneal macrophages were harvested, lysed and phosphorylation of Dap12 associated with TREM2 was probed as a measure of TREM2 signaling activation.

B1: AL2p-58 huIgG1 (antibody)
heavy: not shown
light: DVVMTQSPDSLAVSLGERATINCRSSQSLVHSNRYTYLHWYQQKPGQSPKLLIYKVSNRFSGVPDRFSGSGSGTDFTLKISRVEAEDVGVYYCSQSTRVPYTFGQGTKLEIKRTVAAPSVFIFPPSDEQLKSGTASVVCLLNNFYPREAKVQWKVDNALQSGNSQESVTEQDSKDSTYSLSSTLTLSKADYEKHKVYACEVTHQGLSSPVTKSFNRGEC
notes: also called AL2p-58 huIgG1 WT
As to B1, in assay [1], the “Bmax (MFI)” value worked out at 196000 MFI and binding was put at a Kd of 0.63 nM. In assay [2], the “Plate bound IgG, fold over unstimulated control (25 nM IgG)” value stood at 9.88 fold; the “Soluble IgG, EC50” value amounted to 4.83 nM; the “Soluble IgG, fold over control IgG (17 nM IgG)” value is 9.97 fold. In assay [3], the “EC50 viability, dendritic cells D558” value came out at 0.288 nM; the “EC50 viability, dendritic cells D559” value is 0.341 nM; the “EC50 viability, dendritic cells D560” value stood at 0.271 nM; the “EC50 viability, macrophages D558” value was 0.005 nM. Moreover, in assay [3], the “EC50 viability, macrophages D559” value came to 0.359 nM and the “EC50 viability, macrophages D560” value turned out to be 0.469 nM. In the assay with mouse TREM2, the binding result was “no binding”.

B2: AL2p-58 huIgG1 PSEG (antibody)
heavy: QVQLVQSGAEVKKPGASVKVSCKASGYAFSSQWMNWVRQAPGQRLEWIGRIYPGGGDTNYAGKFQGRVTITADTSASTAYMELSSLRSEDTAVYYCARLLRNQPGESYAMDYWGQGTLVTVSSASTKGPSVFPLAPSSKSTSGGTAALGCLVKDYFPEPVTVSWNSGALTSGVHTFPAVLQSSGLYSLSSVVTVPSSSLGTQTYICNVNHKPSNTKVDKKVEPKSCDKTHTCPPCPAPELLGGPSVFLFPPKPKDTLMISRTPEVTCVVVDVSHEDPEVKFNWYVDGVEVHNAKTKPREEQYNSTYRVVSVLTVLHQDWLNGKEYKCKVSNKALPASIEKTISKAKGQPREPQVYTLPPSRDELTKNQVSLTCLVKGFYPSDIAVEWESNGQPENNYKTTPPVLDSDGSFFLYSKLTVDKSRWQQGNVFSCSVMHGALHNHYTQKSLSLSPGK
light: B1 light
notes: IgG1 with P331S and E430G; also called AL2p-58 PSEG
With B2, in assay [4], the “plate bound signal activation, fold over AL2p” value is roughly 10 fold over AL2p. For the same molecule, in assay [1], the “Bmax (MFI)” value amounted to 140000 MFI and the Kd (commonly the equilibrium constant for the complex coming apart) was 0.36 nM. In addition, in assay [2], the “Plate bound IgG, fold over unstimulated control (25 nM IgG)” value was determined as 12.9 fold; the “Soluble IgG, EC50” value stood at 2.99 nM; the “Soluble IgG, fold over control IgG (17 nM IgG)” value is 12.1 fold. In assay [3], the “EC50 viability, dendritic cells D558” value was 0.206 nM; the “EC50 viability, dendritic cells D559” value was determined as 0.276 nM; the “EC50 viability, dendritic cells D560” value is 0.206 nM; the “EC50 viability, macrophages D558” value came to 0.001 nM. Besides, in assay [3], the “EC50 viability, macrophages D559” value was determined as 0.322 nM and the “EC50 viability, macrophages D560” value was 0.426 nM.
